# Measured values taken from publication PMC7367685, “Reconstitution reveals two paths of force transmission through the kinetochore” (eLife, 2020).
# Changes are numbered by the printed parent chain. Names may count otherwise.
# B1: MIND complex, wild type (Nsl1, FLAG-Dsn1, Mtw1, Nnf1) (complex, S. cerevisiae)
# chain 1: MSQGQSKKLDVTVEQLRSIYHQFHDILEEKTDLHLPKKEYDDDAVRREVQIQLQEFLLSAMTMASKSLEVVNADTVGKTVKQLIMESQEKYMEPFDLDLNEQVRKMYQEWEDETVKVAQLRQTGPAKINEVYNNSKDEYLAQLDGRIGVLQARMMQQQSADHDDSTDDADDHINWEHIKQDYVASLNELYQTQQDLPKVRYNVEKVKRLMDFLEED
# chain 2: MSLEPTQTVSGTPPMLHQRTHKQVYPLRMETIPILESDSKATLQSNEPTQKDEEETEYFENKQSVSNLSPDLKFKRHKNKHIQGFPTLGERLDNLQDIKKAKRVENFNSSAPIADDNHSGDATANATANATANATANVNASAMPAPYMPYYYYYHPMNAPTPAMIPYPGSPMHSIMPNSSLQPFYSQPTAAGGPDMTTPQNISSSQQLLPAPQLFPYGSFHQQQLQQPHYIQRTRERKKSIGSQRGRRLSMLASQANGGSTIISPHKDIPEEDFYTVVGNASFGKNLQIRQLFNWCLMRSLHKLELKAKNQEEEGELEHLTKKSKLESTKAETDYVDPKRLAMVIIKEFVDDLKKDHIAIDWEDEEKYEDEDEEKILDNTENYDDTELRQLFQENDDDDDDDDEVDYSEIQRSRRKFSERRKALPKEPKKLLPNSKNVENTKNLSILTSKVNAIKNEVKEWAVTLDTSRPDLEWQELTSFSSQPLEPLSDTEEPDLAIADVETKLETKVDELRYQSHILNSHSLALNEITNSKVNKLNIETMRKISSETDDDHSQVINPQQLLKGLSLSFSKKLDL
# chain 3: MSAPTMRSTSILTEHLGYPPISLVDDIINAVNEIMYKCTAAMEKYLLSKSKIGEEDYGEEIKSGVAKLESLLENSVDKNFDKLELYVLRNVLRIPEEYLDANVFRLENQKDLVIVDENELKKSEEKLREKVNDVELAFKKNEMLLKRVTKVKRLLFTIRGFKQKLNELLKCKDDVQLQKILESLKPIDDTMTLLTDSLRKLYVDSESTSSTEEVEALLQRLKTNGKQNNKDFRTRYIDIRTNNVLRKLGLLGDKEDEKQSAKPDARTQAGDIVSIDIEEPQLDLLDDVL
# chain 4: MVNSHGIRYIRLKQVFNRALDQSISKLQSWDKVSSCFPQYVNSKQGAINVANCQRQLTEFWTELCQREFKEIMEERNVEQKLNELDELILEAKERYTDRDQDEVNKGPAIDELSSKELVECHLYSQRMHAIHEIDERLAKVNEMNDQLAQELKDLETQVEVEKNEIGKMYDEYLGSHTDQPANVLLVQSLNDMVLELKENY
# notes: Nsl1, S. cerevisiae; Dsn1, S. cerevisiae; Mtw1, S. cerevisiae; Nnf1, S. cerevisiae; also called wild-type MIND; pGH46; copies: + + +
# B2: 2D-MIND complex (FLAG-Nsl1, S240D, S250D-Dsn1, Mtw1, Nnf1) (complex, S. cerevisiae)
# chain 1: B1 chain 1
# chain 2: B1 chain 2 with S240D, S250D
# chain 3: B1 chain 3
# chain 4: B1 chain 4
# notes: Nsl1, S. cerevisiae; Dsn1, S. cerevisiae, with two phosphomimetic substitutions; Mtw1, S. cerevisiae; Nnf1, S. cerevisiae; also called phosphomimetic MIND; pGH62; copies: + + +
# Columns and labels:
# [1] = target: Cse4-NCP: nucleosome core particle of K. lactis 6XHis-H2A, K. lactis 6XHis-H2B, S. cerevisiae Cse4 and K. lactis 6XHis-H4, wrapped in 601 DNA (Kluyveromyces lactis | S. cerevisiae) (UniProt P36012); assay: optical trap force-ramp rupture assay; same beads and free proteins (10 nM each) as the attachment assay; bead on a growing microtubule tip, 1 pN preload, then a ramp of 0.25 pN/s until detachment; median rupture force of the whole chain; not single-molecule conditions; room temperature
# [2] = target: Cse4-NCP: nucleosome core particle of K. lactis 6XHis-H2A, K. lactis 6XHis-H2B, S. cerevisiae Cse4 and K. lactis 6XHis-H4, wrapped in 601 DNA (Kluyveromyces lactis | S. cerevisiae) (UniProt P36012); assay: optical trap bead-microtubule attachment assay (self-assembly and microtubule binding); one His6-tagged subcomplex on anti-His5 polystyrene beads (10 nM on 3.5 pM beads), the other subcomplexes free at 10 nM each; the bead was brought to a single growing microtubule with the laser trap, and a bead whose contact did not persist with the laser off counted as a nonbinder; no external force; BRB80 growth buffer with 1 mM GTP, room temperature; in negative controls one subcomplex was omitted
# [3] = target: T1, Ndc80c (Ndc80, Nuf2, Spc24-Flag, Spc25) (S. cerevisiae, UniProt P40460 1-691; P33895 1-451; Q04477 1-213; P40014 1-221); assay: optical trap bead-microtubule attachment assay (self-assembly and microtubule binding); one His6-tagged subcomplex on anti-His5 polystyrene beads (10 nM on 3.5 pM beads), the other subcomplexes free at 10 nM each; the bead was brought to a single growing microtubule with the laser trap, and a bead whose contact did not persist with the laser off counted as a nonbinder; no external force; BRB80 growth buffer with 1 …; settings: both partners purified
# T1 construct: Ndc80, S. cerevisiae; Nuf2, S. cerevisiae; Spc24, S. cerevisiae; Spc25, S. cerevisiae; also called Ndc80 complex; pJT048 with Ndc80/Nuf2; copies: + + +
# [4] = target: T1, Ndc80c (Ndc80, Nuf2, Spc24-Flag, Spc25); assay: optical trap force-ramp rupture assay; same beads and free proteins (10 nM each) as the attachment assay; bead on a growing microtubule tip, 1 pN preload, then a ramp of 0.25 pN/s until detachment; median rupture force of the whole chain; not single-molecule conditions; room temperature; settings: both partners purified
# T1 sequence (P40460 whole entry, chain 1 of 4): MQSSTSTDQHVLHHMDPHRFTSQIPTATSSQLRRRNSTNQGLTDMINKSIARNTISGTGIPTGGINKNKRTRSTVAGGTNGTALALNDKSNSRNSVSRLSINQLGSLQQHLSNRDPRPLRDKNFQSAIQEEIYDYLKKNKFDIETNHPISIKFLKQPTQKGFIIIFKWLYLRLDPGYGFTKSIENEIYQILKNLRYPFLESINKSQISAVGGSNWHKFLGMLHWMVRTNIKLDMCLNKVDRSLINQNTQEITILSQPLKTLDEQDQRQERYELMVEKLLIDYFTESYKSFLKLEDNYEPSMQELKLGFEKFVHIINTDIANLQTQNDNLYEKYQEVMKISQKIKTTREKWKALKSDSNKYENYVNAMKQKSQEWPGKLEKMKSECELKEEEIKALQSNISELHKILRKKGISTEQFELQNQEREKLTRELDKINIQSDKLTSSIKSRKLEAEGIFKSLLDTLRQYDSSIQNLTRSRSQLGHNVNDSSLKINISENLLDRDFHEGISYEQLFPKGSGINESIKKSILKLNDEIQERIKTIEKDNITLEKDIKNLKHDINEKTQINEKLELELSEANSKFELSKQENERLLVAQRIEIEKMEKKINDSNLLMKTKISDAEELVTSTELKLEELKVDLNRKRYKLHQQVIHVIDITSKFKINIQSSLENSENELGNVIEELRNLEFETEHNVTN
# T1 sequence (P33895 whole entry, chain 2 of 4): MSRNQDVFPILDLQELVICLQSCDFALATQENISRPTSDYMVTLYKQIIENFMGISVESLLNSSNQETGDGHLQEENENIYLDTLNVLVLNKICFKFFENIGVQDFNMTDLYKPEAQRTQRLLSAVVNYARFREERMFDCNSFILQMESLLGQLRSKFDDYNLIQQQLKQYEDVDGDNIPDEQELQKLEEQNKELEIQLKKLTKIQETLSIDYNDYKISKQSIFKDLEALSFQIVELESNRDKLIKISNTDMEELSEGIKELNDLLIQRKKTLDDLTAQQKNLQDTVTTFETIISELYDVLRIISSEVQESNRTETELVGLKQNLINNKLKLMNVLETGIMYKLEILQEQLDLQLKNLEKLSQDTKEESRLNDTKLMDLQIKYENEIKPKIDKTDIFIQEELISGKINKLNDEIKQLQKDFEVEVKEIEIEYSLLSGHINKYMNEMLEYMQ
# T1 sequence (Q04477 whole entry, chain 3 of 4): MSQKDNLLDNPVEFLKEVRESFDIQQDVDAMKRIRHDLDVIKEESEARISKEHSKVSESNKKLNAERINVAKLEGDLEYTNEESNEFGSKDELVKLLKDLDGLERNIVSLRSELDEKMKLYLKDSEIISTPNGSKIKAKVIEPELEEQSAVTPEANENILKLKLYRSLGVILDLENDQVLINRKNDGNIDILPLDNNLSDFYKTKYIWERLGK
# T1 sequence (P40014 whole entry, chain 4 of 4): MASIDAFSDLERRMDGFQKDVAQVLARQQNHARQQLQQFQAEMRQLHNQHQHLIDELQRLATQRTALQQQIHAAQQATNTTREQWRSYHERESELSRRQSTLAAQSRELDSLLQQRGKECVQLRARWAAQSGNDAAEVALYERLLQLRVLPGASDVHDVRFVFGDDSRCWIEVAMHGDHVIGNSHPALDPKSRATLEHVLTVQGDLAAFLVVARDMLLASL
molecule,measurement,setting,value
Mif2-linker-(27-392)MBP (from UniProt P35201 1-549) (natural protein),median rupture force of Cse4-NCP-based chains with both Mif2 and OA free (with 2D-MIND and Ndc80c),[1],4 pN
same,median rupture force of the whole chain Cse4-NCP/Mif2/2D-MIND/Ndc80c,[1],3.3 pN
same,"percent of beads that bound microtubules (Cse4-NCP beads with free Mif2, 2D-MIND and Ndc80c)",[2],24%
B1,binding result,[3],binds
B2,binding result,[4],binds
